Assay [1] deals with A021 (SARS-related coronavirus A021).
The target in assay [2] is CS24 (SARS-related coronavirus CS24).
Assay [3] deals with Civet 007-2004 (civet SARS-related coronavirus 007-2004).
Assay [4] addresses Frankfurt 1 (SARS-CoV isolate Frankfurt 1).
The target in assay [5] is GD-Pangolin (GD-Pangolin coronavirus).
Assay [6] concerns the target LYRa11 (bat coronavirus LYRa11).
Assay [7] addresses Rs4231 (bat coronavirus Rs4231).
Assay [8] has as its target SARS-CoV-1 (SARS-CoV).
The target of assay [9] is SARS-CoV-2 (SARS-CoV-2).
The target of assay [10] is SHC014 (bat coronavirus Rs SHC014).
For assay [11], the target named is WIV1 (bat coronavirus WIV1).
In assay [12] the target is RaTG13 (bat coronavirus RaTG13).

Sequence of VYD224 (antibody) (VH): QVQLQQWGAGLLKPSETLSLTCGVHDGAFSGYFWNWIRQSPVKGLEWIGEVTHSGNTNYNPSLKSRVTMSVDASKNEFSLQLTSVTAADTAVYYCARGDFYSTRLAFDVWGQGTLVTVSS
Sequence of VYD224 (antibody) (VL): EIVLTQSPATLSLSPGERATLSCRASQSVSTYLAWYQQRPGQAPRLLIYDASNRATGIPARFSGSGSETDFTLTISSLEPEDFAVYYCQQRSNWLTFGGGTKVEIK
Sequence of VYD222 (antibody) (VH): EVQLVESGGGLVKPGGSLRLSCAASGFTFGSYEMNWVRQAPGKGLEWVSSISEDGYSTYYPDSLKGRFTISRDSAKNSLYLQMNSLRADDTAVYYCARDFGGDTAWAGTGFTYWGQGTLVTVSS
Sequence of VYD222 (antibody) (VL): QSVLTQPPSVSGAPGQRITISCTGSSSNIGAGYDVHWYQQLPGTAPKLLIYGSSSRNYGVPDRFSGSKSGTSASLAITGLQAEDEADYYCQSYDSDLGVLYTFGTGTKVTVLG
Sequence of ADI-58125 (antibody) (VH): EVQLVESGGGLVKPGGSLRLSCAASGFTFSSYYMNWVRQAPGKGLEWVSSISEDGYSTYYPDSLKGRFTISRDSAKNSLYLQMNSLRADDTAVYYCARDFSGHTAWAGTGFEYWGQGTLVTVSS
Sequence of ADI-58125 (antibody) (VL): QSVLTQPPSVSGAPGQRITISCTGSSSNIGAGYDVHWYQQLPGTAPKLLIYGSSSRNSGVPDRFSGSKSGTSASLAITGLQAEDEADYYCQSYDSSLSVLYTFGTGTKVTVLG

Turning to VYD222 (antibody), the KD App in assay [1] was 240 pM; in assay [2], 450 pM; in [3], 230 pM; in assay [4], 900 pM; in assay [5], 150 pM; in assay [6], 670 pM. The KD App in assay [7] stood at 490 pM; in [8], 440 pM; in assay [9] it was 540 pM; in assay [10] it was 740 pM; in assay [11] it was 970 pM.
Turning to ADI-58125 (antibody), the KD App in assay [1] stood at 1070 pM; in assay [2], 790 pM; in assay [3], 570 pM; in assay [4], 1830 pM; in assay [5] it was 1030 pM; in assay [6], 960 pM. For the same substance, the KD App in assay [7] is 1530 pM; in assay [8], 1020 pM; in [9], 3200 pM; in assay [10], 2720 pM; in [11], 1320 pM.
Turning to VYD224 (antibody), the KD App was 13500 pM in [1]; 15900 pM in assay [2]; 9130 pM in [3]; 930 pM in [4]; 1630 pM in assay [5]; 320 pM in assay [6]. The KD App was determined as 870 pM in assay [12]; 10800 pM in assay [7]; 15600 pM in [8]; 1680 pM in [9]; 12300 pM in assay [10]; 330 pM in assay [11].

The values above are taken from patent US20260078171A1.
